The source of these data is patent publication US20250295737A1 (AstraZeneca / MedImmune, published 2025).

Changes are numbered by the printed parent chain.

T1: human RXFP1 (human, UniProt Q9HBX9 1-757)
T1 sequence (looked up): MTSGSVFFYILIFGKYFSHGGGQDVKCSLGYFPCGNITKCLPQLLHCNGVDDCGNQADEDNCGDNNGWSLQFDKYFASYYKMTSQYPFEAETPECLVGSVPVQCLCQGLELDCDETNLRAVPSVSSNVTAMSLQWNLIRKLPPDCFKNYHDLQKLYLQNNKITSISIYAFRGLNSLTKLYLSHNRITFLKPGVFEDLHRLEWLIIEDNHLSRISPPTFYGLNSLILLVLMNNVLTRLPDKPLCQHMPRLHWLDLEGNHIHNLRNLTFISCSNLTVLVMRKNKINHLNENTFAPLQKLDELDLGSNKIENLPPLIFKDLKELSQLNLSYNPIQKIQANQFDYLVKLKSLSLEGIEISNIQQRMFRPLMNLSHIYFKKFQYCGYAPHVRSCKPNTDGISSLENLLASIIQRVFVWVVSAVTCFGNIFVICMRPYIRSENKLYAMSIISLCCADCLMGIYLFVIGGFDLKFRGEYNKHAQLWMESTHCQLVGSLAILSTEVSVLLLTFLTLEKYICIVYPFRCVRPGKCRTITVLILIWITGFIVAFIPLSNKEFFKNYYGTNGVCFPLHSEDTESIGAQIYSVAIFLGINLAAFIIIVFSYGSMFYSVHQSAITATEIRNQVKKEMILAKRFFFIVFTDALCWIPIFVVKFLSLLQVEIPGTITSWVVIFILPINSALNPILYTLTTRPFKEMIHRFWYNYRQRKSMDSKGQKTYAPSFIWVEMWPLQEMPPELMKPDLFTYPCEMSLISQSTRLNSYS

T2: mouse RXFP1 (mouse, UniProt Q6R6I7 1-758)
T2 sequence (looked up): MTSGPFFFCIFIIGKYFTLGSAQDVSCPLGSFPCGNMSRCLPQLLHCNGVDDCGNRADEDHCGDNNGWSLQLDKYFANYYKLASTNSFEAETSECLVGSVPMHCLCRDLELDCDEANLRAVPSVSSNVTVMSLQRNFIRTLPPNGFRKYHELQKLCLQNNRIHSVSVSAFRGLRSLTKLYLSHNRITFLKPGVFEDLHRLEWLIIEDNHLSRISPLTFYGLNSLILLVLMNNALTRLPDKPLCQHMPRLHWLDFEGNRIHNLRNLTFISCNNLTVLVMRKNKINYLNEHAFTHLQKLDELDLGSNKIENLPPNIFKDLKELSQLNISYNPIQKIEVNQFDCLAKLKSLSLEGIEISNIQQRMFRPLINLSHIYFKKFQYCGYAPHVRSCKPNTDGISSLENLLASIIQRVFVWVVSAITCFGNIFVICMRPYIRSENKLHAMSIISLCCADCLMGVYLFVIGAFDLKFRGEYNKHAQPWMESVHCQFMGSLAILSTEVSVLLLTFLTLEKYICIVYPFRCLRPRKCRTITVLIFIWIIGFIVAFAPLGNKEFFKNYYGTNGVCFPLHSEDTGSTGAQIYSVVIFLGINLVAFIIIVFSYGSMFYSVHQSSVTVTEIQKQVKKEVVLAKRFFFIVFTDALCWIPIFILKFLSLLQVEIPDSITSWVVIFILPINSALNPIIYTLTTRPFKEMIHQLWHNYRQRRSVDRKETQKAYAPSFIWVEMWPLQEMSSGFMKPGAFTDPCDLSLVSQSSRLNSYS

B1: RELAX0110 (Fc fusion)
chain 1: DKTHTCPPCPAPEFEGGPSVFLFPPKPKDTLMISRTPEVTCVVVDVSHEDPEVKFNWYVDGVEVHNAKTKPREEQYNSTYRVVSVLTVLHQDWLNGKEYKCKVSNKALPASIEKTISKAKGQPREPQVYTLPPCREEMTKNQVSLWCLVKGFYPSDIAVEWESNGQPENNYKTTPPVLDSDGSFFLYSKLTVDKSRWQQGNVFSCSVMHEALHNHYTQKSLSLSPGGGGGSGGGGGSQLYSALANKCCHVGCTKRSLARFC
chain 2: DKTHTCPPCPAPEFEGGPSVFLFPPKPKDTLMISRTPEVTCVVVDVSHEDPEVKFNWYVDGVEVHNAKTKPREEQYNSTYRVVSVLTVLHQDWLNGKEYKCKVSNKALPASIEKTISKAKGQPREPQVYTLPPCREEMTKNQVSLWCLVKGFYPSDIAVEWESNGQPENNYKTTPPVLDSDGSFFLYSKLTVDKSRWQQGNVFSCSVMHEALHNHYTQKSLSLSPGAAPAPAPAPAPAPAGSSWMEEVIKLCGRELVRAQIAICGMSTWS
B2: RELAX0111 (Fc fusion)
chain 1: DKTHTCPPCPAPEFEGGPSVFLFPPKPKDTLMISRTPEVTCVVVDVSHEDPEVKFNWYVDGVEVHNAKTKPREEQYNSTYRVVSVLTVLHQDWLNGKEYKCKVSNKALPASIEKTISKAKGQPREPQVYTLPPCREEMTKNQVSLWCLVKGFYPSDIAVEWESNGQPENNYKTTPPVLDSDGSFFLYSKLTVDKSRWQQGNVFSCSVMHEALHNHYTQKSLSLSPGGGGGGSQLYSALANKCCHVGCTKRSLARFC
chain 2: B1 chain 2
B3: RELAX0039 (Fc fusion)
chain 1: DKTHTACPPCPAPEFEGGPSVFLFPPKPKDTLMISRTPEVTCVVVDVSHEDPEVKFNWYVDGVEVHNAKTKPREEQYNSTYRVVSVLTVLHQDWLNGKEYKCKVSNKALPASIEKTISKAKGQPREPQVYTLPPCREEMTKNQVSLWCLVKGFYPSDIAVEWESNGQPENNYKTTPPVLDSDGSFFLYSKLTVDKSRWQQGNVFSCSVMHEALHNHYTQKSLSLSPGGGGGSGGGGSGGGGSGGGGGSQLYSALANMCCHVGCTKRSLARFC
chain 2: DKTHTCPPCPAPEFEGGPSVFLFPPKPKDTLMISRTPEVTCVVVDVSHEDPEVKFNWYVDGVEVHNAKTKPREEQYNSTYRVVSVLTVLHQDWLNGKEYKCKVSNKALPASIEKTISKAKGQPREPQVCTLPPSREEMTKNQVSLSCAVKGFYPSDIAVEWESNGQPENNYKTTPPVLDSDGSFFLVSKLTVDKSRWQQGNVFSCSVMHEALHNHYTQKSLSLSPGGGGGSGGGGSGGGGSGGGGGSSWMEEVIKLCGRELVRAQIAICGMSTWS
B4: RELAX0041 (Fc fusion)
chain 1: B3 chain 1 with M257H
chain 2: B3 chain 2
B5: RELAX0072 (Fc fusion)
chain 1: DKTHTCPPCPAPEFEGGPSVFLFPPKPKDTLMISRTPEVTCVVVDVSHEDPEVKFNWYVDGVEVHNAKTKPREEQYNSTYRVVSVLTVLHQDWLNGKEYKCKVSNKALPASIEKTISKAKGQPREPQVYTLPPCREEMTKNQVSLWCLVKGFYPSDIAVEWESNGQPENNYKTTPPVLDSDGSFFLYSKLTVDKSRWQQGNVFSCSVMHEALHNHYTQKSLSLSPGGGGGSGGGGSGGGGSGGGGGSQLYSALANKCCHVGCTKRSLAAFC
chain 2: B3 chain 2
B6: RELAX0069 (Fc fusion)
chain 1: B5 chain 1 with A269M
chain 2: B3 chain 2
B7: RELAX0075 (Fc fusion)
chain 1: B5 chain 1 with A269R, F270I
chain 2: B3 chain 2
B8: RELAX0052 (Fc fusion)
chain 1: B3 chain 1 with M257K, R266E
chain 2: B3 chain 2
B9: RELAX0043 (Fc fusion)
chain 1: B3 chain 1 with M257E
chain 2: B3 chain 2
B10: RELAX0071 (Fc fusion)
chain 1: B5 chain 1 with A269Q
chain 2: B3 chain 2
B11: RELAX0073 (Fc fusion)
chain 1: B5 chain 1 with A269Y
chain 2: B3 chain 2
B12: RELAX0063 (Fc fusion)
chain 1: B5 chain 1 with A269R, F270A
chain 2: B3 chain 2
B13: RELAX0053 (Fc fusion)
chain 1: B3 chain 1 with M257K, R266H
chain 2: B3 chain 2
B14: RELAX0074 (Fc fusion)
chain 1: B5 chain 1 with A269S
chain 2: B3 chain 2
B15: RELAX0040 (Fc fusion)
chain 1: B3 chain 1 with M257L
chain 2: B3 chain 2
B16: RELAX0070 (Fc fusion)
chain 1: B5 chain 1 with A269I
chain 2: B3 chain 2

One test concerns the target T1, human RXFP1. The test is described as follows: cell-based or functional assay.
B1: the “EC50 hRXFP1 (M), cAMP HTRF assay” value was found to be 1.88e-09 M.

Take B2: the “EC50 hRXFP1 (M), cAMP HTRF assay” value turned out to be 1.93e-09 M.

The target in a further test is T2, mouse RXFP1. The test is described as follows: cell-based or functional assay.
Regarding B1, the “EC50 mRXFP1 (M), cAMP HTRF assay” value turned out to be 1.11e-09 M.

As to B2, the “EC50 mRXFP1 (M), cAMP HTRF assay” value amounted to 1.24e-09 M.

The target of the next test is T3, human RXFP2 (human, UniProt Q8WXD0 1-754). The test is described as follows: cell-based or functional assay.
T3 sequence (Q8WXD0 whole entry): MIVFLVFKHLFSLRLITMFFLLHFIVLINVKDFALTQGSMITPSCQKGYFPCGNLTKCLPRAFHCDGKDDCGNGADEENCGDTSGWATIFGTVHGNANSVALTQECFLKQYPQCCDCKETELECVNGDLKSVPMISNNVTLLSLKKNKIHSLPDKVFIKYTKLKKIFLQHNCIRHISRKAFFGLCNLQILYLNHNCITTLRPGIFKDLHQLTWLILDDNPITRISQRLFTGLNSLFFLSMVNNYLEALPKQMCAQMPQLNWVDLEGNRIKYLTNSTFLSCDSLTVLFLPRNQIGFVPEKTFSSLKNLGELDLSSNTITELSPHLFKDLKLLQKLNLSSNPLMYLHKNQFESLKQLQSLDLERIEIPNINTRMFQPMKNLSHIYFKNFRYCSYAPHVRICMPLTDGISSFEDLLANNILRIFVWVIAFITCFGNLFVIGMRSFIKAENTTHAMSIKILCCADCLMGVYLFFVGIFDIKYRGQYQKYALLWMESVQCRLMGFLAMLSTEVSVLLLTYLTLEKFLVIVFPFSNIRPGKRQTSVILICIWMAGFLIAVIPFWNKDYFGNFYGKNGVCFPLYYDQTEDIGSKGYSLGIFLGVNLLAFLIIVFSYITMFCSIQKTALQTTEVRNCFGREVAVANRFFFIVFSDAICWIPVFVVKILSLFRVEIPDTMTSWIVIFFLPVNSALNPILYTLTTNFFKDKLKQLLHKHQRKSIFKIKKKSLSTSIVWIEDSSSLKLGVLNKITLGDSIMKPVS
On to B1, for which the “EC50 hRXFP2 (M), cAMP HTRF assay” value was greater than 6.07e-08 M.

Take B2: the “EC50 hRXFP2 (M), cAMP HTRF assay” value is greater than 6.06e-08 M.

A further test addresses T1, human RXFP1. The test is described as follows: cell-based or functional assay. The source holds these as a separate data set.
As to B3, the “EC50 hRXFP1 (M), cAMP HTRF assay” value was determined as 6.54e-11 M.

For B4, the “EC50 hRXFP1 (M), cAMP HTRF assay” value was determined as 6.22e-11 M.

In the case of B5, the “EC50 hRXFP1 (M), cAMP HTRF assay” value was found to be 8.53e-11 M.

Consider B6, for which the “EC50 hRXFP1 (M), cAMP HTRF assay” value was 5.76e-11 M.

Turning to B7, the “EC50 hRXFP1 (M), cAMP HTRF assay” value stood at 9.47e-11 M.

Consider B8, for which the “EC50 hRXFP1 (M), cAMP HTRF assay” value is 9.67e-11 M.

Take B9: the “EC50 hRXFP1 (M), cAMP HTRF assay” value was 7.98e-11 M.

Consider B10, for which the “EC50 hRXFP1 (M), cAMP HTRF assay” value came to 6.87e-11 M.

In the case of B11, the “EC50 hRXFP1 (M), cAMP HTRF assay” value was 5.7e-11 M.

Take B12: the “EC50 hRXFP1 (M), cAMP HTRF assay” value was 1.96e-10 M.

As for B13, the “EC50 hRXFP1 (M), cAMP HTRF assay” value stood at 7.15e-11 M.

Turning to B14, the “EC50 hRXFP1 (M), cAMP HTRF assay” value was 5.45e-11 M.

Take B15: the “EC50 hRXFP1 (M), cAMP HTRF assay” value turned out to be 5.92e-11 M.

Turning to B16, the “EC50 hRXFP1 (M), cAMP HTRF assay” value amounted to 6.67e-11 M.

In the next test the target is T2, mouse RXFP1. The test is described as follows: cell-based or functional assay. This is another data set of the same source.
Regarding B3, the “EC50 mRXFP1 (M), cAMP HTRF assay” value was found to be 4.25e-11 M.

B4: the “EC50 mRXFP1 (M), cAMP HTRF assay” value stood at 3.17e-11 M.

With B5, the “EC50 mRXFP1 (M), cAMP HTRF assay” value worked out at 4.03e-11 M.

As for B6, the “EC50 mRXFP1 (M), cAMP HTRF assay” value came out at 3.69e-11 M.

Consider B7, for which the “EC50 mRXFP1 (M), cAMP HTRF assay” value is 6.14e-11 M.

For B8, the “EC50 mRXFP1 (M), cAMP HTRF assay” value is 5.69e-11 M.

Regarding B9, the “EC50 mRXFP1 (M), cAMP HTRF assay” value was determined as 5.58e-11 M.

Turning to B10, the “EC50 mRXFP1 (M), cAMP HTRF assay” value is 3.93e-11 M.

B11: the “EC50 mRXFP1 (M), cAMP HTRF assay” value amounted to 4.15e-11 M.

As for B12, the “EC50 mRXFP1 (M), cAMP HTRF assay” value is 4.46e-11 M.

In the case of B13, the “EC50 mRXFP1 (M), cAMP HTRF assay” value amounted to 4.36e-11 M.

On to B14, for which the “EC50 mRXFP1 (M), cAMP HTRF assay” value came out at 4.53e-11 M.

With B15, the “EC50 mRXFP1 (M), cAMP HTRF assay” value stood at 2.92e-11 M.

Turning to B16, the “EC50 mRXFP1 (M), cAMP HTRF assay” value was 5.02e-11 M.

In another test the target is T3, human RXFP2. The test is described as follows: cell-based or functional assay. The source holds these as a separate data set.
For B3, the “EC50 hRXFP2 (M), cAMP HTRF assay” value amounted to 1.08e-07 M.

Regarding B4, the “EC50 hRXFP2 (M), cAMP HTRF assay” value came to 1.18e-07 M.

For the molecule B5, the “EC50 hRXFP2 (M), cAMP HTRF assay” value is greater than 2.3e-07 M.

For the molecule B6, the “EC50 hRXFP2 (M), cAMP HTRF assay” value is greater than 1.62e-07 M.

For B7, the “EC50 hRXFP2 (M), cAMP HTRF assay” value is greater than 1.43e-07 M.

Regarding B8, the “EC50 hRXFP2 (M), cAMP HTRF assay” value is 1.05e-07 M.

Consider B9, for which the “EC50 hRXFP2 (M), cAMP HTRF assay” value was greater than 1.58e-07 M.

For the molecule B10, the “EC50 hRXFP2 (M), cAMP HTRF assay” value turned out to be 1.15e-07 M.

As to B11, the “EC50 hRXFP2 (M), cAMP HTRF assay” value was determined as 8.63e-08 M.

B12: the “EC50 hRXFP2 (M), cAMP HTRF assay” value is greater than 1.38e-07 M.

With B13, the “EC50 hRXFP2 (M), cAMP HTRF assay” value is greater than 1.79e-07 M.

With B14, the “EC50 hRXFP2 (M), cAMP HTRF assay” value was determined as 9.21e-08 M.

On to B15, for which the “EC50 hRXFP2 (M), cAMP HTRF assay” value was greater than 1.27e-07 M.

Take B16: the “EC50 hRXFP2 (M), cAMP HTRF assay” value is 1.07e-07 M.
